Measured values: US20060094649A1 (published 2006)
Non-standard residues stand in square brackets, D forms with d. No end group written: not given here. Abu = CC[C@H](N)C(=O)O

Key:
HLA-B*4403 [1] = target: HLA-B*4403 (human); test: competition vs labelled reference peptide on HLA class I
HLA-B*4501 = HLA-B*4501 (human); test: as above
HLA-B*4403 [2] = target: HLA-B*4403 (human); test: competitive inhibition of labeled probe peptide, purified HLA
HLA-B*4403 [3] = target: HLA-B*4403 (human); test: competition with labeled probe peptide, purified HLA class I
HLA-B*1801 = HLA-B*1801 (human); test: as above
HLA-A*3301 = HLA-A*3301 (human); test: competition vs 125I probe, purified HLA
HLA-A*3101 = HLA-A*3101 (human); test: competition vs 125I probe, purified HLA

B1: GEGLACHQLCA (Her2/neu position 506, 11-mer) (peptide)
peptide: GEGLACHQLCA
An IC50 (HLA-B*4403 [1]) of 2.7 nM was found for B1 in this work.

B2: EEGACQPCPI (Her2/neu position 619, 10-mer) (peptide)
peptide: EEGACQPCPI
An IC50 (HLA-B*4501) of 401 nM was found for B2 in this work.

B3: MAGE2 155 SEYLQLVFGIEVV (peptide)
peptide: SEYLQLVFGIEVV
An IC50 (HLA-B*4403 [2]) of 7.6 nM was found for B3 in this work.

B4: PEEGLEARGEA (MAGE2, position 12) (peptide)
peptide: PEEGLEARGEA
An IC50 (HLA-B*4403 [3]) of 950 nM was found for B4 in this work.

B5: LESEFQAAL (MAGE3, position printed 301) (peptide)
peptide: LESEFQAAL
An IC50 (HLA-B*1801) of 5.4 nM was found for B5 in this work.

B6: p53.124.B1V2R9 (peptide)
peptide: [Abu]VYSPALNR
An IC50 (HLA-A*3301) of 85 nM was found for B6 in this work.

B7: p53.240.V2B3K9 (peptide)
peptide: SV[Abu]MGGMNK
An IC50 (HLA-A*3101) of 9000 nM was found for B7 in this work.

B8: p53.240.B3K10 (peptide)
peptide: SS[Abu]MGGMNRK
An IC50 (HLA-A*3101) of 720 nM was found for B8 in this work.
